Target: T1, M1-linked tetra-ubiquitin (UniProt P0CG48 1-76; P0CG48 1-76; P0CG48 1-76; P0CG48 1-76, M1-linked)
T1 construct: ubiquitin, first of four head-to-tail repeats; ubiquitin, second repeat; ubiquitin, third repeat; ubiquitin, fourth repeat; also called M1-linked chains
Assay: pull-down; GST fusion held on glutathione agarose, incubated with 0.5 μg of an individual tetra-ubiquitin chain, 2 h at 4 °C; 150 mM NaCl, 50 mM Tris pH 7.5, 0.1% IGEPAL, 5 mM DTT, 0.25 mg/mL BSA; immunoblotted for GST and ubiquitin
Settings: both partners purified

B1: GST-TNK1-UBA (domain or fragment, human, UniProt Q13470 585-666, looked up)
chain: LLSDPELQRKIMEVELSVHGVTHQECQTALGATGGDVVSAIRNLKVDQLFHLSSRSRADCWRILEHYQWDLSAASRYVLARP
notes: TNK1, human, amino acid 585 to 666 (UBA domain), in pGEX-6P-1; also called GST-tagged recombinant TNK1 UBA; source: E. coli BL21; held on glutathione agarose and washed (pull-down); lysate loaded on anti-GST biosensors (BLI); not shown: GST, N-terminal, kept
B1: binds.
